# Experimental data from patent US20240269315A1, “DRUG CONJUGATE AND USE THEREOF” (priority 2021, published 2024).
# B1: ADC4 (antibody, human IgG1, kappa, V domains shown)
# VH: QVQLQQSGSELKKPGASVKVSCKASGYTFTNYGMNWVKQAPGQGLKWMGWINTYTGEPTYTDDFKGRFAFSLDTSVSTAYLQISSLKADDTAVYFCARGGFGSSYWYFDVWGQGTLVTVSS
# VL: DIQLTQSPSSLSASVGDRVSITCKASQDVSIAVAWYQQKPGKAPKLLIYSASYRYTGVPDRFSGSGSGTDFTLTISSLQPEDFAVYYCQQHYITPLTFGAGTKVEIKR
# modifications: CB07-Exatecan on cysteine thiols after TCEP reduction; positions not given; DAR (p) 4.2 per antibody
# Molecular target: T1, Trop2 (UniProt P09758 27-323, limits assumed)
# T1 sequence (looked up): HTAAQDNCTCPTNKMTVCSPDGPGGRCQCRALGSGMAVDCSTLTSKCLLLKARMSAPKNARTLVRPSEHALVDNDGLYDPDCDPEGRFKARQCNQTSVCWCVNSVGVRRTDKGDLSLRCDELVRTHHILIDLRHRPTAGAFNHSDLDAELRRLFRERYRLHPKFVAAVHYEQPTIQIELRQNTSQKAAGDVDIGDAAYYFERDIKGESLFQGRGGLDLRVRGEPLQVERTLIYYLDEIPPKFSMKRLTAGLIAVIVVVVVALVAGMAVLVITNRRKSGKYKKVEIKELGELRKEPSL
# Assay: cell-based or functional assay
binder,measurement,value
B1,"EC50 (ng/mL), growth inhibition of Trop2 positive MDA-MB-453 cells (CCK-8, 120 h)",640 ng/mL
same,"EC50 (ng/mL), growth inhibition of Trop2 positive MDA-MB-468 cells (CCK-8, 120 h)",158 ng/mL
same,"EC50 (ng/mL), growth inhibition of Trop2 positive MX-1 cells (CCK-8, 120 h)",233 ng/mL
